Molecular target: HLA-A*02:01 (Homo sapiens, UniProt P04439, D140Y/D185E/D98H/E176V/E277Q/G131W/G231S/I119V/I121R/I166T/I218V/L300P/L318F/N151K/N90K/P208A/P217A/Q86G/Q94H/R138H/R169H/T345S)
Test: MHC binding assay (UV-ligand exchange, β2m ELISA, peptide exchange yield)
Details: MHC class I binding score; binding to HLA-A*02:01 ranged by peptide exchange yield (UV-ligand exchange, β2m ELISA)
Summary of the method: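 Peptide–HLA-A*02:01 complexes were formed by UV-mediated exchange of a UV-cleavable ligand for the test peptide. Exchange yield was measured by capturing complexes on streptavidin, detecting with HRP anti-β2m antibody (1 h, 37°C) and reading TMB absorbance at 450 nm.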

Peptide exchange | Substance
″+++″ (≧50% = +++) | 539 (ALFDAQAQV; listed as Homo sapiens) [compound 539]
″+++″ (≧50% = +++) | 541 (SMLEPVPEL; listed as Homo sapiens) [compound 541]
″+++″ (≧50% = +++) | 542 (RVWDISTVSSV; listed as Homo sapiens) [compound 542]
″+++″ (≧50% = +++) | 543 (GLLPTPITQQASL; listed as Homo sapiens) [compound 543]
″+++″ (≧50% = +++) | 544 (LLWDVPAPSL; listed as Homo sapiens) [compound 544]
″+++″ (≧50% = +++) | 545 (LLADLLHNV; listed as Homo sapiens) [compound 545]
″+++″ (≧50% = +++) | 546 (VMIAGKVAVV; listed as Homo sapiens) [compound 546]
″+++″ (≧50% = +++) | 547 (TLDITPHTV; listed as Homo sapiens) [compound 547]
″++″ (≧20% = ++) | 548 (ALWENPESGEL; listed as Homo sapiens) [compound 548]
″+++″ (≧50% = +++) | 549 (AMLENASDIKL; listed as Homo sapiens) [compound 549]
″+++″ (≧50% = +++) | 550 (FLYDEIEAEVNL; listed as Homo sapiens) [compound 550]
″+++″ (≧50% = +++) | 551 (KLYESLLPFA; listed as Homo sapiens) [compound 551]
″++++″ (≧75% = ++++) | 552 (GLLDLPFRVGV; listed as Homo sapiens) [compound 552]
″++++″ (≧75% = ++++) | 553 (SLLNQDLHWSL; listed as Homo sapiens) [compound 553]
″+++″ (≧50% = +++) | 554 (LLMPSSEDLLL; listed as Homo sapiens) [compound 554]
″+++″ (≧50% = +++) | 555 (YVLEGLKSV; listed as Homo sapiens) [compound 555]
″+++″ (≧50% = +++) | 556 (FLTDLEDLTL; listed as Homo sapiens) [compound 556]
″+++″ (≧50% = +++) | 557 (KLYDDMIRL; listed as Homo sapiens) [compound 557]
″+++″ (≧50% = +++) | 558 (GLLENIPRV; listed as Homo sapiens) [compound 558]
″++″ (≧20% = ++) | 559 (VTVPPGPSL; listed as Homo sapiens) [compound 559]
″+++″ (≧50% = +++) | 560 (ALWDIETGQQTTT; listed as Homo sapiens) [compound 560]
″+++″ (≧50% = +++) | 561 (YLQLTQSEL; listed as Homo sapiens) [compound 561]
″+++″ (≧50% = +++) | 562 (YLEELPEKLKL; listed as Homo sapiens) [compound 562]
″+++″ (≧50% = +++) | 563 (WLLPYNGVTV; listed as Homo sapiens) [compound 563]
″+++″ (≧50% = +++) | 564 (TVTNAVVTV; listed as Homo sapiens) [compound 564]
″++″ (≧20% = ++) | 565 (ALQETPTSV; listed as Homo sapiens) [compound 565]

Peptide exchange | Substance
″++″ (≧20% = ++) | 566 (VIADGGIQNV; listed as Homo sapiens) [compound 566]
″+++″ (≧50% = +++) | 567 (SLLPLDDIVRV; listed as Homo sapiens) [compound 567]
″++++″ (≧75% = ++++) | 568 (TLYDIAHTPGV; listed as Homo sapiens) [compound 568]
″+++″ (≧50% = +++) | 569 (KLVDRTWTL; listed as Homo sapiens) [compound 569]
″++″ (≧20% = ++) | 570 (ALANQIPTV; listed as Homo sapiens) [compound 570]
″+++″ (≧50% = +++) | 571 (LLLTTIPQI; listed as Homo sapiens) [compound 571]
″+++″ (≧50% = +++) | 572 (ALADLIEKELSV; listed as Homo sapiens) [compound 572]
″+++″ (≧50% = +++) | 573 (ILVANAIVGV; listed as Homo sapiens) [compound 573]
″++″ (≧20% = ++) | 574 (YLLQEPPRTV; listed as Homo sapiens) [compound 574]
″+++″ (≧50% = +++) | 575 (YLISQVEGHQV; listed as Homo sapiens) [compound 575]
″++++″ (≧75% = ++++) | 576 (ILLNNSGQIKL; listed as Homo sapiens) [compound 576]
″+++″ (≧50% = +++) | 577 (VMFEDGVLMRL; listed as Homo sapiens) [compound 577]
″+++″ (≧50% = +++) | 578 (FLDPGGPMMKL; listed as Homo sapiens) [compound 578]
″++″ (≧20% = ++) | 579 (NLMEMVAQL; listed as Homo sapiens) [compound 579]
″++″ (≧20% = ++) | 580 (LLMENAERV; listed as Homo sapiens) [compound 580]
″+++″ (≧50% = +++) | 582 (TLCDVILMV; listed as Homo sapiens) [compound 582]
″+++″ (≧50% = +++) | 583 (ILANDGVLLAA; listed as Homo sapiens) [compound 583]
″+++″ (≧50% = +++) | 584 (ALAEVAAMENV; listed as Homo sapiens) [compound 584]
″++++″ (≧75% = ++++) | 585 (ALWDLAADKQTL; listed as Homo sapiens) [compound 585]
″+++″ (≧50% = +++) | 586 (KLKPGDLVGV; listed as Homo sapiens) [compound 586]
″+++″ (≧50% = +++) | 587 (VMNDRLYAI; listed as Homo sapiens) [compound 587]
″+++″ (≧50% = +++) | 588 (SLLPLSHLV; listed as Homo sapiens) [compound 588]
″+++″ (≧50% = +++) | 589 (KLYPQLPAEI; listed as Homo sapiens) [compound 589]
″++″ (≧20% = ++) | 590 (SLIEKLWQT; listed as Homo sapiens) [compound 590]
″+++″ (≧50% = +++) | 591 (SMAELDIKL; listed as Homo sapiens) [compound 591]
″+++″ (≧50% = +++) | 592 (RLLSAAENFL; listed as Homo sapiens) [compound 592]

Peptide exchange | Substance
″+++″ (≧50% = +++) | 593 (GLPRFGIEMV; listed as Homo sapiens) [compound 593]
″+++″ (≧50% = +++) | 594 (IMLKGDNITL; listed as Homo sapiens) [compound 594]
″+++″ (≧50% = +++) | 595 (VLLSIYPRV; listed as Homo sapiens) [compound 595]
″+++″ (≧50% = +++) | 596 (ALLDQTKTLAESAL; listed as Homo sapiens) [compound 596]
″+++″ (≧50% = +++) | 597 (KLLEGQVIQL; listed as Homo sapiens) [compound 597]
″+++″ (≧50% = +++) | 598 (FLFPHSVLV; listed as Homo sapiens) [compound 598]
″+++″ (≧50% = +++) | 599 (YLLNDASLISV; listed as Homo sapiens) [compound 599]
″+++″ (≧50% = +++) | 600 (ALAAPDIVPAL; listed as Homo sapiens) [compound 600]
″+++″ (≧50% = +++) | 601 (SAFPFPVTV; listed as Homo sapiens) [compound 601]
″++++″ (≧75% = ++++) | 602 (YLLEQIKLIEV; listed as Homo sapiens) [compound 602]
″+++″ (≧50% = +++) | 604 (SILDRDDIFV; listed as Homo sapiens) [compound 604]
″+++″ (≧50% = +++) | 605 (KLYEAVPQL; listed as Homo sapiens) [compound 605]
″+++″ (≧50% = +++) | 606 (ALWETEVYI; listed as Homo sapiens) [compound 606]
″+++″ (≧50% = +++) | 607 (RLYSGISGLEL; listed as Homo sapiens) [compound 607]
″+++″ (≧50% = +++) | 608 (SLLSVSHAL; listed as Homo sapiens) [compound 608]
″+++″ (≧50% = +++) | 609 (ALWKQLLEL; listed as Homo sapiens) [compound 609]
″+++″ (≧50% = +++) | 610 (LLAPTPYIIGV; listed as Homo sapiens) [compound 610]
″++++″ (≧75% = ++++) | 611 (YLLDDGTLVV; listed as Homo sapiens) [compound 611]
″+++″ (≧50% = +++) | 612 (YLYNEGLSV; listed as Homo sapiens) [compound 612]
″+++″ (≧50% = +++) | 613 (RLLPPGAVVAV; listed as Homo sapiens) [compound 613]
″+++″ (≧50% = +++) | 614 (LLLPDQPPYHL; listed as Homo sapiens) [compound 614]
″++″ (≧20% = ++) | 615 (VLPPDTDPA; listed as Homo sapiens) [compound 615]
″+++″ (≧50% = +++) | 616 (VLIDEVESL; listed as Homo sapiens) [compound 616]
″+++″ (≧50% = +++) | 617 (ALMYESEKVGV; listed as Homo sapiens) [compound 617]
″+++″ (≧50% = +++) | 618 (VLFDSESIGIYV; listed as Homo sapiens) [compound 618]
